B1: Nb60 (VHH)
VHH: QVQLQESGGGSVQPGGSLRLSCAASGFAVSSVAMSWVRQAPGKGLEWVSSINRYGFRVYADSVTGRFTISRDNAKNTLYLQLNSLKTEDTAMYYCSKDDDANWLNGRRGQGTQVTVSS
B2: Nb54 (VHH)
VHH: QVQLQESGGGSVQSGGSLRLSCAASTYTYNNYCMGWFRQAPGKEREGVASIERFGHTIFADSVKGRFTISRDNTKNTLYLQMNSLKPEDTAMYYCATERPSAYCSDSFTFNYWGQGTQVTVSS
B3: Nb114 (VHH)
VHH: QVQLQESGGGSVQSGGSLRLSCAASGYTYQTYSMGWFRQAPGKEREGVAAIDDDGSTMYADSVKGRFTISQDSAKNTLYLQMNSLKPEDTAVYYCAASGFRGLLEFMRNIWVDYWGQGTQVTVSS
B4: Nb20 (VHH)
VHH: QVQLQESGGGSVQSGGSLRLSCRAVDGSGACMGWFRQAPGKEREGVAVIARDGSTNYAHSVRGRFTISQDNAKNTLYLQMNGLKPDDTAMYYCAAGPRFRSCSTSPSFYTSWGQGTQVTVSS
B5: Nb100 (VHH)
VHH: QVQLQESGGGSVQSGGSLRLSCAASGYRRYCMAWFRQAPGKEREGVASIRSDGSTRYADSVKGRFSISQDNAENTLYLQMNSLKPEDTAMYYCAADSSAGCYSVHNSLLARSTYNYWGQGTQVTVSS
B6: Nb5 (VHH)
VHH: QVQLQESGGGSVQSGGSLRLSCAASTYTYSSGCMGWFRQAPGKEREGVATIDSDGSTTYADSVKGRFTISQDNAKNTLQLQMNSLKPEDTAMYYCAADDFWICSIIGRPGVADFRYWGQGTQVTVSS
B7: Nb45 (VHH)
VHH: QVQLQESGGGSVQSGGSLRLSCARSGYARRIYSMAWFRQAPGKEREGVAILNDDGNPTYAGSVKGRFTISRDNAKNTLYLQMNSLKPEDTAMYYCAADLTAQSYTRDRLLTSAYNVWGQGTQVTVSS

What follows are binders tested against BVDV NS5B-His recombinant protein (Bovine viral diarrhea virus 1, strain …, UniProt P19711) (assay: ELISA).
Sequence of BVDV NS5B-His recombinant protein (P19711 whole entry, looked up): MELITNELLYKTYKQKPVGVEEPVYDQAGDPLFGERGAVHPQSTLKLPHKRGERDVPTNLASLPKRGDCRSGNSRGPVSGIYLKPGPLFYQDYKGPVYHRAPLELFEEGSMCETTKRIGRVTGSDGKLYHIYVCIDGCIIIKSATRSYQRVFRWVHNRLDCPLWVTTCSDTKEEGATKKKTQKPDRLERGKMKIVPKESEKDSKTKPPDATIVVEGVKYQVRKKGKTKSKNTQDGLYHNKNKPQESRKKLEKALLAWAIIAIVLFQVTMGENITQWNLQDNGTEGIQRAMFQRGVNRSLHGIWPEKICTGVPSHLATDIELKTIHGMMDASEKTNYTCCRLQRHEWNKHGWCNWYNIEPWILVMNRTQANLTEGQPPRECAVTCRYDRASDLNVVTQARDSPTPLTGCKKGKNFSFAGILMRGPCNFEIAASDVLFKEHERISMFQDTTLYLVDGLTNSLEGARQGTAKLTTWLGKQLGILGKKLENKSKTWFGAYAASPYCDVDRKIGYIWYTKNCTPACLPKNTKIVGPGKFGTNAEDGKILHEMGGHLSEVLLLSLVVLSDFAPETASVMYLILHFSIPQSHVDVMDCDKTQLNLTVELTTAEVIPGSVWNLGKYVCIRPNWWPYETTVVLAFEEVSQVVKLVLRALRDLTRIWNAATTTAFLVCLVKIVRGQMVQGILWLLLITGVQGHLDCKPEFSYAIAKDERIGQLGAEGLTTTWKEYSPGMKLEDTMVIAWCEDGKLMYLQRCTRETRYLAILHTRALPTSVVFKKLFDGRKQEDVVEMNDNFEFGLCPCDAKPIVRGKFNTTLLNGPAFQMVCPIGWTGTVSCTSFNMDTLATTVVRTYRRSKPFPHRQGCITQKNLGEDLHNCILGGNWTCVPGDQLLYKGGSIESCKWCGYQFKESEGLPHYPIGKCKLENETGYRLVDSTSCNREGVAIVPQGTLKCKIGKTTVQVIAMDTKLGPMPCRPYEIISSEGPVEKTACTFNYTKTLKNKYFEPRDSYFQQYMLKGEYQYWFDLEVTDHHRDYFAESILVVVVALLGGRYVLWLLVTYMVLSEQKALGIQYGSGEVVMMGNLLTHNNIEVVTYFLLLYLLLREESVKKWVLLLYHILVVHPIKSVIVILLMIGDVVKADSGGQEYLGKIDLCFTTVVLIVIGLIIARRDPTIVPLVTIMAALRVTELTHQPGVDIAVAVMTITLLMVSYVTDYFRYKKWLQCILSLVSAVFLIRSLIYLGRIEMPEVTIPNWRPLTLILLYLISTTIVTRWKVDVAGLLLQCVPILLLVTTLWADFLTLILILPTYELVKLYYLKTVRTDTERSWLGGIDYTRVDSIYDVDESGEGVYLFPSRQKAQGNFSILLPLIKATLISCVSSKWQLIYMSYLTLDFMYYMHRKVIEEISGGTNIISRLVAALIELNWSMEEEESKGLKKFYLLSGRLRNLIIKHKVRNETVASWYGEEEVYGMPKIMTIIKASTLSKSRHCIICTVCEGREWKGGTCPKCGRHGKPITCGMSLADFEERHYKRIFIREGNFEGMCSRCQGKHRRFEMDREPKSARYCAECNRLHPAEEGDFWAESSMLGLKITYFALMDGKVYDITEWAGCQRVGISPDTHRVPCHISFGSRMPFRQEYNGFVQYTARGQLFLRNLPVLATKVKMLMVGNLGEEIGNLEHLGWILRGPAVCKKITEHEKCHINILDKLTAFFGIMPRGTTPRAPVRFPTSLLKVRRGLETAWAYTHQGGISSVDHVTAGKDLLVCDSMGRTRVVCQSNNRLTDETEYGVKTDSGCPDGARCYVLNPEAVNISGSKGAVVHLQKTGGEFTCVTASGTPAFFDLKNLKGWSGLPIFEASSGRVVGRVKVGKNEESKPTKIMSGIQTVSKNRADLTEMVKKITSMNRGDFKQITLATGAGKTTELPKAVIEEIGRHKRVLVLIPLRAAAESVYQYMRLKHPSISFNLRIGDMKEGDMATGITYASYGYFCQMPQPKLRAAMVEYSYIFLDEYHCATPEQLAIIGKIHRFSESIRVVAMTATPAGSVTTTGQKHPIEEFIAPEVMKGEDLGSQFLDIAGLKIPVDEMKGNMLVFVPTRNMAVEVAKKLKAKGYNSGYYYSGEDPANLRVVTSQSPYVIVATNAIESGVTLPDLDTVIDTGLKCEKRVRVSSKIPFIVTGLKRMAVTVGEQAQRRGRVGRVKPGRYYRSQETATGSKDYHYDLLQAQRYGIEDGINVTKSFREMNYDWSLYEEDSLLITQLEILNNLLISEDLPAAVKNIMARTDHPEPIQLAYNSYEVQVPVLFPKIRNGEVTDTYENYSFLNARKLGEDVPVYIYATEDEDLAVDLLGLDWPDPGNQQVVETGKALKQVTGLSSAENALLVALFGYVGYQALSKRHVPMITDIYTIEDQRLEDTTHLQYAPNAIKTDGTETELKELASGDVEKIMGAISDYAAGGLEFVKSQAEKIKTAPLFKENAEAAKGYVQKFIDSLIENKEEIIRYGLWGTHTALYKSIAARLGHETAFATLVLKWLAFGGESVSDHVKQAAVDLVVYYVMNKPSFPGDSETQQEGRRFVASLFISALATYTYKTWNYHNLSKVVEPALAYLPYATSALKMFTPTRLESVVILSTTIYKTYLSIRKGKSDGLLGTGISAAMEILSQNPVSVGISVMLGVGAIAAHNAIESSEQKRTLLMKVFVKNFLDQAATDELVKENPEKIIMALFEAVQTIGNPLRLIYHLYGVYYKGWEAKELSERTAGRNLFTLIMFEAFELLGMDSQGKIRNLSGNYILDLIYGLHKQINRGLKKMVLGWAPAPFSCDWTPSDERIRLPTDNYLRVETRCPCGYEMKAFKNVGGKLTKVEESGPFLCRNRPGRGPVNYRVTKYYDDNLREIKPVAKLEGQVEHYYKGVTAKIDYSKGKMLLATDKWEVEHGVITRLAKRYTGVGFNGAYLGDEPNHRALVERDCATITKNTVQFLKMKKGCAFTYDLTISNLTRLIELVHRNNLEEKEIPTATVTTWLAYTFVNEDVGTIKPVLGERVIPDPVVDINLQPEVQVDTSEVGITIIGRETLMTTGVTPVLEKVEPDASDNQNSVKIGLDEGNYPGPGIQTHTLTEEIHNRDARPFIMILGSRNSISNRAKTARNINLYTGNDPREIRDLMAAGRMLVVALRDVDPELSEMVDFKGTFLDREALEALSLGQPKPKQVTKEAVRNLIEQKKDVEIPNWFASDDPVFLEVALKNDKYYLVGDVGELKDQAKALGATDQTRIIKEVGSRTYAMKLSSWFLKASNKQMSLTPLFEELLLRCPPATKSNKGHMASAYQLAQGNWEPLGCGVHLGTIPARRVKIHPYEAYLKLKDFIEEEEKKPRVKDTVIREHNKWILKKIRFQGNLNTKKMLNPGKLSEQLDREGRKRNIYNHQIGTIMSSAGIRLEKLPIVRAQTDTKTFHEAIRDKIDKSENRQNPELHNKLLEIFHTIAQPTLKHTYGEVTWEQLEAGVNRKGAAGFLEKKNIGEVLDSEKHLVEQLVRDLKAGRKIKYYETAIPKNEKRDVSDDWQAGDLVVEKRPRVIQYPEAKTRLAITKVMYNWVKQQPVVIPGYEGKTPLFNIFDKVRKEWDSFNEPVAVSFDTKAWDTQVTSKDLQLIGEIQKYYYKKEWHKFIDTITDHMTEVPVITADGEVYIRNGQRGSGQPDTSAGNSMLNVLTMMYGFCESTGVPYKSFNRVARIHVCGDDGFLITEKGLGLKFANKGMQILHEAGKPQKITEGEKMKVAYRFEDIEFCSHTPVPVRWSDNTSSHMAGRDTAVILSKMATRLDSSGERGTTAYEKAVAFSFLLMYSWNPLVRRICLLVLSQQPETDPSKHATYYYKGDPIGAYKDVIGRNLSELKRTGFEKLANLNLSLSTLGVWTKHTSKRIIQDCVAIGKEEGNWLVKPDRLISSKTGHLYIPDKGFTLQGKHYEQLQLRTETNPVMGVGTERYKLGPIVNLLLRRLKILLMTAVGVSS
B1: binds. B2: binds. B3: binds. B4: binds. B5: binds. B6: binds. B7: binds.
